Reference: paper PMC8303780, “Mutational Analysis of Redβ Single Strand Annealing Protein: Roles of the 14 Lysine Residues in DNA Binding and Recombination In Vivo”

T1: Redβ K111A (bacteriophage λ, UniProt P03698 1-261, K111A)
T1 sequence: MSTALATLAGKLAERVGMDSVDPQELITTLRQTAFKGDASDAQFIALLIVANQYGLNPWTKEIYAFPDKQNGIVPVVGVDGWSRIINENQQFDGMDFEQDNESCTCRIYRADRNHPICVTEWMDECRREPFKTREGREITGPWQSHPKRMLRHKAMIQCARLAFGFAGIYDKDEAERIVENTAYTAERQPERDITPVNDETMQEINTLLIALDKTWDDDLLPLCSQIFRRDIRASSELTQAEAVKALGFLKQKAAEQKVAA

T2: Redβ K172A (bacteriophage λ, UniProt P03698 1-261, K172A)
T2 sequence: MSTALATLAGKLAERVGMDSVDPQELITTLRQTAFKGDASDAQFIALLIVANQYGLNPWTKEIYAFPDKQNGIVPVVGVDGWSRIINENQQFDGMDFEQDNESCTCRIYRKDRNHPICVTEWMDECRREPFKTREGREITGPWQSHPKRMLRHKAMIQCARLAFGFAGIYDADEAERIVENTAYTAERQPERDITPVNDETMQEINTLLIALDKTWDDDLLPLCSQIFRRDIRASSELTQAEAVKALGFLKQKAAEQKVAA

T3: Redβ K148A (bacteriophage λ, UniProt P03698 1-261, K148A)
T3 sequence: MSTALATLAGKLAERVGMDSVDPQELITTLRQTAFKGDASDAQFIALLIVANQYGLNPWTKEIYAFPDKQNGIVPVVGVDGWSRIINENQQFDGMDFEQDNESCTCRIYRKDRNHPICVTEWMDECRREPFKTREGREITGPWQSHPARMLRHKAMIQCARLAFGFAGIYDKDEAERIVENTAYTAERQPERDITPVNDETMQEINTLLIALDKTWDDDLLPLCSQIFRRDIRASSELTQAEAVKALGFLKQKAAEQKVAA

T4: Redβ K154A (bacteriophage λ, UniProt P03698 1-261, K154A)
T4 sequence: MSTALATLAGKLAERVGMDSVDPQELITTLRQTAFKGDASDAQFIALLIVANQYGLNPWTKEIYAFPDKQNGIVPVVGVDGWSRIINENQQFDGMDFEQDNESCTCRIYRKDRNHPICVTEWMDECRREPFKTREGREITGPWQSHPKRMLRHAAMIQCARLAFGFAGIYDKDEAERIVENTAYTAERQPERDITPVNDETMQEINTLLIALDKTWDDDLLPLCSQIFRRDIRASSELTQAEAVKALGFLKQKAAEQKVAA

T5: Redβ K132A (bacteriophage λ, UniProt P03698 1-261, K132A)
T5 sequence: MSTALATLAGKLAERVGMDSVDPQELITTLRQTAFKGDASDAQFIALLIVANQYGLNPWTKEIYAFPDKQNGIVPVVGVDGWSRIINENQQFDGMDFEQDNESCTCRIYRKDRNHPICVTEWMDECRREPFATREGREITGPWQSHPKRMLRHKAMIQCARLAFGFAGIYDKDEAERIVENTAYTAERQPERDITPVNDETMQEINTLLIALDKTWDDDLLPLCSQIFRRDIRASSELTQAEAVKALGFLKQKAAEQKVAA

T6: Redβ K61A (bacteriophage λ, UniProt P03698 1-261, K61A)
T6 sequence: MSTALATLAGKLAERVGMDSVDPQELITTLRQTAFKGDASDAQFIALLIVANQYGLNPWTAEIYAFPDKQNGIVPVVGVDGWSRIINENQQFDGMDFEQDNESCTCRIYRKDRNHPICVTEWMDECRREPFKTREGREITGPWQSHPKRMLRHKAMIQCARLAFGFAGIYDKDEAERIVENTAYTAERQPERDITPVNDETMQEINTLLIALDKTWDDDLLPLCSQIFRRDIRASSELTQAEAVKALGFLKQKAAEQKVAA

T7: Redβ K69A (bacteriophage λ, UniProt P03698 1-261, K69A)
T7 sequence: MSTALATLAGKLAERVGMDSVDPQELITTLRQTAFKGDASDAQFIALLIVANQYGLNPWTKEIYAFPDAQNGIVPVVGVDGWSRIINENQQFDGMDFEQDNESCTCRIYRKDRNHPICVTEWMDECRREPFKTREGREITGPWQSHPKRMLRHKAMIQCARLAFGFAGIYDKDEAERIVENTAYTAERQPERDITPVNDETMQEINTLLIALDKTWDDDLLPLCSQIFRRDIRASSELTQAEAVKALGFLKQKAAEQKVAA


Legend:
Conditions in all cases: protein: recombinant, tags: 6xHis removed by thrombin, residual N-terminal GSH
Redβ K111A = biological target: T1, Redβ K111A; assay: EMSA; PBS; Anisotropy: 50 mM Tris-HCl pH 7.5, 1 mM DTT, 0.1 mg/mL BSA, 10 nM FAM48, 23 °C (Kd per monomer); gel assay: 10 µM Redβ, 50 µM nt of each oligo, PBS, 37 °C, 1% agarose at 22 °C
Redβ K172A = biological target: T2, Redβ K172A; assay: as above
Redβ K148A = biological target: T3, Redβ K148A; assay: as above
Redβ K154A = biological target: T4, Redβ K154A; assay: as above
Redβ K132A = biological target: T5, Redβ K132A; assay: as above
Redβ K61A = biological target: T6, Redβ K61A; assay: as above
Redβ K69A = biological target: T7, Redβ K69A; assay: EMSA; PBS; enhanced vs WT; Anisotropy: 50 mM Tris-HCl pH 7.5, 1 mM DTT, 0.1 mg/mL BSA, 10 nM FAM48, 23 °C (Kd per monomer); gel assay: 10 µM Redβ, 50 µM nt of each oligo, PBS, 37 °C, 1% agarose at 22 °C

Binder	binding result (Redβ K111A; label: 5'-Cy5)	binding result (Redβ K172A; label: 5'-Cy5)	binding result (Redβ K148A; label: 5'-Cy5)	binding result (Redβ K154A; label: 5'-Cy5)	binding result (Redβ K132A; label: 5'-Cy5)	binding result (Redβ K61A; label: 5'-Cy5)	binding result (Redβ K69A; label: 5'-Cy5)	binding result (Redβ K111A; label: 5'-Cy3)	binding result (Redβ K172A; label: 5'-Cy3)	binding result (Redβ K148A; label: 5'-Cy3)	binding result (Redβ K154A; label: 5'-Cy3)	binding result (Redβ K132A; label: 5'-Cy3)	binding result (Redβ K61A; label: 5'-Cy3)	binding result (Redβ K69A; label: 5'-Cy3)
CCATCCGCAAAAATCGAGCTATGCAGGGCGATTCTGCTCTAAGCCATCCG (ssDNA) [Cy5 50-mer ssDNA]	no binding	no binding	no binding	no binding	no binding	no binding	binds	–	–	–	–	–	–	–
GCGGATGGCTTAGAGCAGAATCGCCCTGCATAGCTCGATTTTTGCGGATG (ssDNA) [Cy3 50-mer ssDNA]	–	–	–	–	–	–	–	no binding	no binding	no binding	no binding	no binding	no binding	binds
